Reference: the supplement of paper PMC9112550, “Optimization of the antimicrobial peptide Bac7 by deep mutational scanning” (BMC Biology, 2022)

Tested on: Escherichia coli TOP10
Assay: shrunken log2 fold change of peptide-encoding DNA abundance (4.5 h post-induction vs induction); higher = less antimicrobial activity (less host growth inhibition)
Details: time post-induction: 4.5 h; library: site-saturation at positions 5, 18, 19, 20
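Also: peptides expressed intracellularly from a pBAD plasmid library in pooled LB shake-flask culture, induced with 0.3% L-arabinose, DNA abundance read by NGS, three biological replicates, DESeq2 with apeglm shrinkage.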

## RRIRNRPPRLPRPRPRPDAHPRP
  shrunken log2 fold change: 0.0677

## RRIRLRPPRLPRPRPRPPEQPRP
  shrunken log2 fold change: -0.0138

## RRIRCRPPRLPRPRPRPANFPRP
  shrunken log2 fold change: -0.0131

## RRIRTRPPRLPRPRPRPCNLPRP
  shrunken log2 fold change: -0.00247

## RRIRWRPPRLPRPRPRPVHFPRP
  shrunken log2 fold change: -0.0407

## RRIRKRPPRLPRPRPRPKMAPRP
  shrunken log2 fold change: 0.169

## RRIRDRPPRLPRPRPRPLMSPRP
  shrunken log2 fold change: 0.101

## RRIRYRPPRLPRPRPRPPQKPRP
  shrunken log2 fold change: -0.123

## RRIRYRPPRLPRPRPRPIIYPRP
  shrunken log2 fold change: -0.522

## RRIRNRPPRLPRPRPRPCNQPRP
  shrunken log2 fold change: 0.0223

## RRIRCRPPRLPRPRPRPYFCPRP
  shrunken log2 fold change: -0.514

## RRIRTRPPRLPRPRPRPHHMPRP
  shrunken log2 fold change: -0.321

## RRIRHRPPRLPRPRPRPCSRPRP
  shrunken log2 fold change: -0.231

## RRIRHRPPRLPRPRPRPLQTPRP
  shrunken log2 fold change: 0.139

## RRIRQRPPRLPRPRPRPGVAPRP
  shrunken log2 fold change: 0.207

## RRIRERPPRLPRPRPRPHLMPRP
  shrunken log2 fold change: 1.19

## RRIRDRPPRLPRPRPRPIFVPRP
  shrunken log2 fold change: 0.0563

## RRIRLRPPRLPRPRPRPCSNPRP
  shrunken log2 fold change: -0.47

## RRIRWRPPRLPRPRPRPTPWPRP
  shrunken log2 fold change: 0.48

## RRIRPRPPRLPRPRPRPHRFPRP
  shrunken log2 fold change: 0.645

## RRIRMRPPRLPRPRPRPQYLPRP
  shrunken log2 fold change: -0.0275

## RRIRYRPPRLPRPRPRPEAGPRP
  shrunken log2 fold change: -0.0468

## RRIRYRPPRLPRPRPRPPDYPRP
  shrunken log2 fold change: -2.1

## RRIRRRPPRLPRPRPRPGHSPRP
  shrunken log2 fold change: -0.0814

## RRIRGRPPRLPRPRPRPIGGPRP
  shrunken log2 fold change: 0.0174

## RRIRARPPRLPRPRPRPYHRPRP
  shrunken log2 fold change: -0.047

## RRIRHRPPRLPRPRPRPSTFPRP
  shrunken log2 fold change: -0.0458

## RRIRFRPPRLPRPRPRPGPQPRP
  shrunken log2 fold change: 0.447

## RRIRVRPPRLPRPRPRPECQPRP
  shrunken log2 fold change: 0.353

## RRIRCRPPRLPRPRPRPEPHPRP
  shrunken log2 fold change: 0.489

## RRIRLRPPRLPRPRPRPAHRPRP
  shrunken log2 fold change: 0.278

## RRIRTRPPRLPRPRPRPNIDPRP
  shrunken log2 fold change: -0.32

## RRIRCRPPRLPRPRPRPFMHPRP
  shrunken log2 fold change: -1.01

## RRIRFRPPRLPRPRPRPIHKPRP
  shrunken log2 fold change: -0.775

## RRIRVRPPRLPRPRPRPTCEPRP
  shrunken log2 fold change: 0.243

## RRIRCRPPRLPRPRPRPNIEPRP
  shrunken log2 fold change: -0.279

## RRIRMRPPRLPRPRPRPLLQPRP
  shrunken log2 fold change: 0.616

## RRIRFRPPRLPRPRPRPRGTPRP
  shrunken log2 fold change: 0.294

## RRIRHRPPRLPRPRPRPMRLPRP
  shrunken log2 fold change: 0.0431

## RRIRLRPPRLPRPRPRPVRNPRP
  shrunken log2 fold change: 0.0234

## RRIRDRPPRLPRPRPRPWWPPRP
  shrunken log2 fold change: 0.0881

## RRIRKRPPRLPRPRPRPAPKPRP
  shrunken log2 fold change: 1.06

## RRIRCRPPRLPRPRPRPMKAPRP
  shrunken log2 fold change: -0.173

## RRIRKRPPRLPRPRPRPLIIPRP
  shrunken log2 fold change: -0.501

## RRIRVRPPRLPRPRPRPADEPRP
  shrunken log2 fold change: -0.0284

## RRIRSRPPRLPRPRPRPLTYPRP
  shrunken log2 fold change: -0.132

## RRIRVRPPRLPRPRPRPYYAPRP
  shrunken log2 fold change: -0.915

## RRIRKRPPRLPRPRPRPQKVPRP
  shrunken log2 fold change: -0.0143

## RRIRFRPPRLPRPRPRPCMEPRP
  shrunken log2 fold change: -0.105

## RRIRLRPPRLPRPRPRPIIRPRP
  shrunken log2 fold change: -0.19

## RRIRNRPPRLPRPRPRPTEIPRP
  shrunken log2 fold change: -0.319

## RRIRSRPPRLPRPRPRPGQYPRP
  shrunken log2 fold change: -0.113

## RRIRQRPPRLPRPRPRPDAYPRP
  shrunken log2 fold change: -0.228

## RRIRDRPPRLPRPRPRPRPCPRP
  shrunken log2 fold change: 0.429

## RRIRVRPPRLPRPRPRPSTFPRP
  shrunken log2 fold change: -0.479

## RRIRVRPPRLPRPRPRPYMIPRP
  shrunken log2 fold change: -0.904

## RRIRDRPPRLPRPRPRPYTNPRP
  shrunken log2 fold change: -0.647

## RRIRGRPPRLPRPRPRPGVWPRP
  shrunken log2 fold change: 1.22

## RRIRQRPPRLPRPRPRPYFVPRP
  shrunken log2 fold change: -0.472

## RRIRHRPPRLPRPRPRPICMPRP
  shrunken log2 fold change: -0.00804

## RRIRQRPPRLPRPRPRPRFVPRP
  shrunken log2 fold change: 0.165

## RRIRKRPPRLPRPRPRPWHTPRP
  shrunken log2 fold change: 0.0104

## RRIRKRPPRLPRPRPRPMLHPRP
  shrunken log2 fold change: 0.164

## RRIRVRPPRLPRPRPRPQRLPRP
  shrunken log2 fold change: 0.275

## RRIRERPPRLPRPRPRPKTYPRP
  shrunken log2 fold change: -0.771

## RRIRWRPPRLPRPRPRPTRAPRP
  shrunken log2 fold change: 0.909

## RRIRMRPPRLPRPRPRPASAPRP
  shrunken log2 fold change: 1.09

## RRIRRRPPRLPRPRPRPLLDPRP
  shrunken log2 fold change: 0.449

## RRIRGRPPRLPRPRPRPHGDPRP
  shrunken log2 fold change: 1.11

## RRIRMRPPRLPRPRPRPDKLPRP
  shrunken log2 fold change: 0.282

## RRIRNRPPRLPRPRPRPFPEPRP
  shrunken log2 fold change: -0.293

## RRIRYRPPRLPRPRPRPQPGPRP
  shrunken log2 fold change: -0.0846

## RRIRPRPPRLPRPRPRPTSDPRP
  shrunken log2 fold change: 0.0712

## RRIRHRPPRLPRPRPRPRCSPRP
  shrunken log2 fold change: -0.236

## RRIRARPPRLPRPRPRPGNWPRP
  shrunken log2 fold change: 0.346

## RRIRVRPPRLPRPRPRPTMNPRP
  shrunken log2 fold change: -0.353

## RRIRTRPPRLPRPRPRPRGKPRP
  shrunken log2 fold change: 0.259

## RRIRRRPPRLPRPRPRPLSYPRP
  shrunken log2 fold change: -0.0226

## RRIRHRPPRLPRPRPRPLEAPRP
  shrunken log2 fold change: -0.00262

## RRIRRRPPRLPRPRPRPDPTPRP
  shrunken log2 fold change: 0.77

## RRIRARPPRLPRPRPRPTFHPRP
  shrunken log2 fold change: 0.177

## RRIRIRPPRLPRPRPRPVWIPRP
  shrunken log2 fold change: -0.242

## RRIRERPPRLPRPRPRPWGIPRP
  shrunken log2 fold change: -0.234

## RRIRIRPPRLPRPRPRPATLPRP
  shrunken log2 fold change: -0.559

## RRIRNRPPRLPRPRPRPERGPRP
  shrunken log2 fold change: 0.296

## RRIRQRPPRLPRPRPRPYYPPRP
  shrunken log2 fold change: 0.0338

## RRIRLRPPRLPRPRPRPIGKPRP
  shrunken log2 fold change: -0.335

## RRIRLRPPRLPRPRPRPHPGPRP
  shrunken log2 fold change: 0.242

## RRIRWRPPRLPRPRPRPRGQPRP
  shrunken log2 fold change: 0.302

## RRIRPRPPRLPRPRPRPWQHPRP
  shrunken log2 fold change: -0.105

## RRIRNRPPRLPRPRPRPGIFPRP
  shrunken log2 fold change: -0.0122
